Patent US8658672

How the values were obtained:
[1] = biological target: [35S]-labeled human HIF-1α protein, Q16665
[2] = biological target: T1, F-HIF-1α peptide (788-822 amino acids)
T1 chain: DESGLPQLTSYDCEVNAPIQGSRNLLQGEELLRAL

[35S]-labeled human HIF-1α protein, Q16665, sequence (Q16665 401-826): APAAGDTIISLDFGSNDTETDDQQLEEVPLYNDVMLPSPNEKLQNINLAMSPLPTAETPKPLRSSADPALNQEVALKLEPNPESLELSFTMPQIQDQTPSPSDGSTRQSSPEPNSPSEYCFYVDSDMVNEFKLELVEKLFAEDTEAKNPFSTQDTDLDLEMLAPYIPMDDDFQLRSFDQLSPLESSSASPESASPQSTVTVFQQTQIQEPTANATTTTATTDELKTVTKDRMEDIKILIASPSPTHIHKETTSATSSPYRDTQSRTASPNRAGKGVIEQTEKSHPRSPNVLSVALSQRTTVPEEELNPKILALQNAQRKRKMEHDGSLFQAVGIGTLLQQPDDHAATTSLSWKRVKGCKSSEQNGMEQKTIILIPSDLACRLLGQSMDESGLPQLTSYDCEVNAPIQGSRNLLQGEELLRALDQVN

B1: recombinant human FIH-1, histidine-tagged fusion protein (protein)
chain: MAATAAEAVASGSGEPREEAGALGPAWDESQLRSYSFPTRPIPRLSQSDPRAEELIENEEPVVLTDTNLVYPALKWDLEYLQENIGNGDFSVYSASTHKFLYYDEKKMANFQNFKPRSNREEMKFHEFVEKLQDIQQRGGEERLYLQQTLNDTVGRKIVMDFLGFNWNWINKQQGKRGWGQLTSNLLLIGMEGNVTPAHYDEQQNFFAQIKGYKRCILFPPDQFECLYPYPVHHPCDRQSQVDFDNPDYERFPNFQNVVGYETVVGPGDVLYIPMYWWHHIESLLNGGITITVNFWYKGAPTPKRIEYPLKAHQKVAIMRNIEKMLGEALGNPQEVGPLLNTMIKGRYN
For B1, the “interaction of [35S]-HIF-1α with bead-bound GST-CBP after reaction with FIH-1” value [1] was “the addition of FIH-1 reduced significantly the interaction between HIF-1α and CBP” and the “MALDI-TOF mass of the peptide after incubation with FIH-1 (asparagine hydroxylation)” value [2] was “after treatment with FIH-1 the peptide gave a new MALDI-TOF peak corresponding to an increase of molecular weight of 16”.
